Source: patent US20240226163A1 (Regeneron, published 2024)

Key:
[1] = molecular target: HLA-A*02:01 presenting MAGE-A4 286-294 peptide (…) (human); assay: cell-based or functional assay
[2] = molecular target: HLA-A*02:01 presenting MAGE-A4 286-294 peptide (…) (human); assay: cell-based or functional assay; remark: listed apart in the source
[3] = molecular target: T1, HLA-A*02:01 presenting FN1 2182-2190 peptide (…) (human); assay: flow cytometry, peptide-pulsed T2 cells
T1 construct: On peptide-pulsed T2 cells; also called T2 Pulsed FN1 2182-2190

[4] = molecular target: T2, HLA-A*02:01 presenting MRPL37 334-342 peptide (…) (human); assay: flow cytometry, peptide-pulsed T2 cells
T2 construct: On peptide-pulsed T2 cells; also called T2 Pulsed MRPL37 334-342

[5] = molecular target: T3, HLA-A*02:01 presenting NBAS 2063-2071 peptide (…) (human); assay: flow cytometry, peptide-pulsed T2 cells
T3 construct: On peptide-pulsed T2 cells; also called T2 Pulsed NBAS 2063-2071

[6] = molecular target: T4, HLA-A*02:01 presenting CNOT1 1965-1973 peptide (…) (human); assay: flow cytometry, peptide-pulsed T2 cells
T4 construct: On peptide-pulsed T2 cells; also called T2 Pulsed CNOT1 1965-1973

[7] = molecular target: T5, HLA-A*02:01 presenting TEP1 2156-2164 peptide (…) (human); assay: flow cytometry, peptide-pulsed T2 cells
T5 construct: On peptide-pulsed T2 cells; also called T2 Pulsed TEP1 2156-2164

[8] = molecular target: T6, HLA-A*02:01 presenting SMIM11A 4-12 peptide (…) (human); assay: flow cytometry, peptide-pulsed T2 cells
T6 construct: On peptide-pulsed T2 cells; also called T2 Pulsed SMIM11A 4-12

[9] = molecular target: T7, HLA-A*02:01 presenting RABGAP1L 408-416 peptide (…) (human); assay: flow cytometry, peptide-pulsed T2 cells
T7 construct: On peptide-pulsed T2 cells; also called T2 Pulsed RABGAP1L 408-416

[10] = molecular target: T8, HLA-A*02:01 presenting HEATR5A 1925-1933 peptide (…) (human); assay: flow cytometry, peptide-pulsed T2 cells
T8 construct: On peptide-pulsed T2 cells

[11] = molecular target: T9, HLA-A*02:01 presenting PSME2 145-153 peptide (…) (human); assay: flow cytometry, peptide-pulsed T2 cells
T9 construct: On peptide-pulsed T2 cells; also called T2 Pulsed PSME2 145-153

[12] = molecular target: T10, HLA-A*02:01 presenting PLEKHH2 790-798 peptide (…) (human); assay: flow cytometry, peptide-pulsed T2 cells
T10 construct: On peptide-pulsed T2 cells; also called T2 Pulsed PLEKHH2 790-798

[13] = molecular target: T11, HLA-A*02:01 presenting CARD8 170-178 peptide (…) (human); assay: flow cytometry, peptide-pulsed T2 cells
T11 construct: On peptide-pulsed T2 cells; also called T2 Pulsed CARD8 170-178

[14] = molecular target: T12, HLA-A*02:01 presenting PCDHGC3 337-345 peptide (…) (human); assay: flow cytometry, peptide-pulsed T2 cells
T12 construct: On peptide-pulsed T2 cells; also called T2 Pulsed PCDHGC3 337-345

B1: bsAb6043 (bispecific antibody, V domains shown)
VH 1: QVQLVESGGGLVKPGGSLRLSCAASGFTFSEYYLTWIRQAPGKGLDWIAYISSSGYNIYYADSVKDRFTISRDNGKNSLFLQMNNLRAEDTAVYFCAREGVTDGMDVWGQGTTVTVSS
VH 2: EVQLVESGGGLVQPGRSLRLSCAASGFTFDDYSMHWVRQAPGKGLEWVSGISWNSGSKGYADSVKGRFTISRDNAKNSLYLQMNSLRAEDTALYYCAKYGSGYGKFYHYGLDVWGQGTTVTVSS
VL: DIQMTQSPSSLSASVGDRVTITCRASQSIDTFLNWYQQKPGKVPKLLIYAASNLESGVPSRFSGSGSGTVFTLTISRLQPEDFATYYCQQSYSIPPITFGQGTRVEIK
notes: Only variable regions are tied to the bispecific; also called MAGE-A4×CD3 (7221G) bispecific antibody
Fold Activation, NF-κB luciferase, Jurkat/NF-κB Luc + IM-9 [1]: 1.8 fold
Fold Activation, NF-κB luciferase, Jurkat/NF-κB Luc + U266 [1]: 0.9 fold
Fold Activation, NF-κB luciferase, Jurkat + IM-9, with 2 nM mAb5705 (anti-CD28) [2]: 1.1 fold
Fold Activation, NF-κB luciferase, Jurkat + U266, with 2 nM mAb5705 (anti-CD28) [2]: 0.9 fold
binding result [3]: no binding
binding result [4]: no binding
binding result [5]: no binding
binding result [6]: no binding
binding result [7]: no binding
binding result [8]: no binding
binding result [9]: no binding
binding result [10]: no binding
binding result [11]: no binding
binding result [12]: no binding
binding result [13]: no binding
binding result [14]: no binding
